In patent US7067474B1, “Agents for treating human illnesses based on β-catenin, and the production and use thereof” (Max-Delbruck-Centrum fur Molekulare Medizin, priority 1998, dated 2006):
Where a chain is given by its changes, count along the chain named. “Also recorded” adds a separate entry of the source. One block for each molecule: values may come before it.

Assays:
[1] = molecular target: human APC amino acids Ser1259-Asp1400 (APC 20 amino acid repeats) fused to Lex-A (vector BTM 116) (human); test: yeast 2-hybrid, β-galactosidase reporter; percent of wild type β-catenin
[2] = molecular target: conductin amino acids Ala342-Arg465 fused to Lex-A (vector BTM 116) (UniProt P0A7C2); test: as above
[3] = molecular target: human APC amino acids His1012-Glu1215 (APC 15 amino acid repeats) fused to Lex-A (vector BTM 116) (human); test: as above
conductin = molecular target: T1, conductin (Mus musculus, UniProt O88566); test: yeast 2-hybrid: interaction of β-catenin mutants with conductin; type: binding; conditions: for Interaction With Conductin, share of wild type β-catenin interaction: yeast 2-hybrid, alanine mutants; for interaction with conductin: β-catenin mutation, in words
T1 construct: conductin for the amino acids Ala342–ARG465; expressed in transfected cells; host or cells: yeast (two-hybrid, Matchmaker, Clontech)
Protocol: (§1) The mutagenesis of β-catenin in the armadillo repeats 3–8 was carried out by means of the “mutagenesis kit” of the company Clontech according to the producer's record and the mutants were checked by sequencing (FIG. 5). In all mutants the original amino acid was substituted by alanine. For analyzing the interactions the cDNA of human β-catenin (armadillo repeat 3 up to the C-terminal end of the protein) coding for the amino acids Leu218–Leu7 μl or its mutants was cloned into the fusion vector for the activation domain of Gal-4 (pGAD424, Clontech). The cDNA for the binding domains of the interaction partners was cloned into the Lex-A fusion vector BTM 116. To this end, the cDNA of LEF-1 for the amino acids 1–99, conductin for the amino acids Ala342–ARG465; of human APC for the amino acids His1012–Glu1215 (APC 15 amino acid repeats) and for the amino acids Ser1259Asp 1400 (APC 20 amino acid repeats) and E-cadherin for the amino acids Gin773–Asp884 (cytoplasmatic domain) were amplified with the respective primers PCR. The interaction of the Lex-A hybrids with β-catenin and its mutants was quantified by means of the β-galactosidase reporter activity in the yeast 2-hybrid system (report: “Matchmaker”. Clontech) (Tab. 2 and FIG. 6).

E-cadherin = molecular target: T2, E-cadherin (Mus musculus, UniProt P09803); test: yeast 2-hybrid: interaction of β-catenin mutants with E-cadherin; type: binding; conditions: alanine mutants
T2 construct: E-cadherin for the amino acids Gin773–Asp884 (cytoplasmatic domain); expressed in transfected cells; host or cells: yeast (two-hybrid, Matchmaker, Clontech)
Protocol: as §1

LEF-1 = molecular target: T3, LEF-1 (Mus musculus, UniProt P27782); test: yeast 2-hybrid: interaction of β-catenin mutants with LEF-1; type: binding; conditions: for Interaction With LEF-1, share of wild type β-catenin interaction: yeast 2-hybrid, alanine mutants
T3 construct: the cDNA of LEF-1 for the amino acids 1–99; expressed in transfected cells; host or cells: yeast (two-hybrid, Matchmaker, Clontech)
Protocol: as §1

[4] = molecular target: T4, APC (15 amino acid repeats) (Homo sapiens, UniProt P25054); test: yeast 2-hybrid: interaction of β-catenin mutants with APC 15 amino acid repeats; type: binding; conditions: yeast 2-hybrid, alanine mutants
T4 construct: of human APC for the amino acids His1012–Glu1215 (APC 15 amino acid repeats); expressed in transfected cells; host or cells: yeast (two-hybrid, Matchmaker, Clontech)
T4 sequence (P25054 1006-1209 limits assumed): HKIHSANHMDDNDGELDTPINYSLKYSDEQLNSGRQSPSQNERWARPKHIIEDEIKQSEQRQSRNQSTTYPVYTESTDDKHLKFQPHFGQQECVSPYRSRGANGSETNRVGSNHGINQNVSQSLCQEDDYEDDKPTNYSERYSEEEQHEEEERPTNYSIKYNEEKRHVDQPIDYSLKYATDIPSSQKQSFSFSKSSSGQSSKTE
Protocol: as §1

[5] = molecular target: T5, APC (20 amino acid repeats) (Homo sapiens, UniProt P25054); test: yeast 2-hybrid: interaction of β-catenin mutants with APC 20 amino acid repeats; type: binding; conditions: for Interaction With APC-20, share of wild type β-catenin interaction: yeast 2-hybrid, alanine mutants
T5 construct: for the amino acids Ser1259Asp 1400 (APC 20 amino acid repeats); expressed in transfected cells; host or cells: yeast (two-hybrid, Matchmaker, Clontech)
T5 sequence (P25054 1253-1394 limits assumed): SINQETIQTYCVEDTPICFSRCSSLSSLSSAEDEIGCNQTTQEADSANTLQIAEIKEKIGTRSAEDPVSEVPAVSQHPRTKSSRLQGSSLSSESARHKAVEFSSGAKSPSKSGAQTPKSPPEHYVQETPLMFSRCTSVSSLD
Protocol: as §1

human APC amino acids Ser1259-Asp1400 (APC 20 amino acid repeats) fused to Lex-A (vector BTM 116) (human), sequence (P0A7C2 other isoform, or with tags, fused parts or gaps limits assumed, form in doubt): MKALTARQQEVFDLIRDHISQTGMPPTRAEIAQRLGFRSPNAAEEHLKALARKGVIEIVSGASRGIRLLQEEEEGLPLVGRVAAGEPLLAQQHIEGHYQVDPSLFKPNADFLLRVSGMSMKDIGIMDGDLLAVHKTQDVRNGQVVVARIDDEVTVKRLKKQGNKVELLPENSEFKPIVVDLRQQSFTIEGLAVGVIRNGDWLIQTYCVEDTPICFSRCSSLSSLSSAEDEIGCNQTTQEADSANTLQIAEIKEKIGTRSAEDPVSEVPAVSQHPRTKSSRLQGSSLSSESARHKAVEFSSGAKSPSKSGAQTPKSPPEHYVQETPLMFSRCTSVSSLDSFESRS
T1 sequence (O88566 343-465 limits assumed): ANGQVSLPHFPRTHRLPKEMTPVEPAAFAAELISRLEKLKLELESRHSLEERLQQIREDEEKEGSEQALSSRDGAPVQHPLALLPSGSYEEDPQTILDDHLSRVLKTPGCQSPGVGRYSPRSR
T2 sequence (P09803 773-884): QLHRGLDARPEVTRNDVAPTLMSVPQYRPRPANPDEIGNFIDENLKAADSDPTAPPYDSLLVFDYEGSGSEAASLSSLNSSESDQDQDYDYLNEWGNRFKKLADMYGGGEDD
T3 sequence (P27782 1-99): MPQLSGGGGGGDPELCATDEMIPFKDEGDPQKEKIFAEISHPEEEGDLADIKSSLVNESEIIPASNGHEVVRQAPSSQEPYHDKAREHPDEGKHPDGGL
conductin amino acids Ala342-Arg465 fused to Lex-A (vector BTM 116), sequence (P0A7C2 other isoform, or with tags, fused parts or gaps limits assumed, form in doubt): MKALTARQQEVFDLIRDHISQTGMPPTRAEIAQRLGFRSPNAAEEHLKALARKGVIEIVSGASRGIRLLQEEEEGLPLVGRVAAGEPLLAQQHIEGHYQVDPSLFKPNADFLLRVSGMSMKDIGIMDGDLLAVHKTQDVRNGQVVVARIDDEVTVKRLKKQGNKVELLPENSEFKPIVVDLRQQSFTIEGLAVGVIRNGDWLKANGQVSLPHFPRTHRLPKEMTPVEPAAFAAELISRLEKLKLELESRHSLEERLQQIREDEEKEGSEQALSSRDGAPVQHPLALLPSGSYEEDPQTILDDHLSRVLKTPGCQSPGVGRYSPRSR
human APC amino acids His1012-Glu1215 (APC 15 amino acid repeats) fused to Lex-A (vector BTM 116) (human), sequence (P0A7C2 other isoform, or with tags, fused parts or gaps limits assumed, form in doubt): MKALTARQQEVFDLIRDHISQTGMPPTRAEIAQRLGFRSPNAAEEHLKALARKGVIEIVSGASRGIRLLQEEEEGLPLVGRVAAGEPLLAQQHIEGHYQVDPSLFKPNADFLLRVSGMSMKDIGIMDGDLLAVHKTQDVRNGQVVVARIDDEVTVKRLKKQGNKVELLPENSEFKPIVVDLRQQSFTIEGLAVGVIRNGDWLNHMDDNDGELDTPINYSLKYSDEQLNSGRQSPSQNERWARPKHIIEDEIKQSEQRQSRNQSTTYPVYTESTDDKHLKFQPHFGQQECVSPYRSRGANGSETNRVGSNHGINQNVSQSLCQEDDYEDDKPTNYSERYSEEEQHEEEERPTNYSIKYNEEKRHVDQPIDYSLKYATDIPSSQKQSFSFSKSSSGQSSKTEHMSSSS

share of the interaction with wild type β-catenin in percent [1]: 55% | share of the interaction with wild type β-catenin in percent [2]: 20%
Molecule: human β-catenin (Leu218-Leu781) mutant Trp 338 to alanine, Gal-4 activation domain fusion (from UniProt P35222 218-781)

share of the interaction with wild type β-catenin in percent [3]: 30% | share of the interaction with wild type β-catenin in percent [2]: 42%
Molecule: human β-catenin (Leu218-Leu781) mutant Lys 435 to alanine, Gal-4 activation domain fusion (from UniProt P35222 218-781)

Interaction With Conductin, share of wild type β-catenin interaction (conductin): 42%
B5: Lys 394: human β-catenin mutant, Lys 394 substituted by alanine (arm 7) (protein)
chain: LHNLSHHREGLLAIFKSGGIPALVKMLGSPVDSVLFYAITTLHNLLLHQEGAKMAVRLAGGLQKMVALLNKTNVKFLAITTDCLQILAYGNQESKLIILASGGPQALVNIMRTYTYEKLLWTTSRVLKVLSVCSSNKPAIVEAGGMQALGLHLTDPSQRLVQNCLWTLRNLSDAATAQEGMEGLLGTLVQLLGSDDINVVTCAAGILSNLTCNNYKNKMMVCQVGGIEALVRTVLRAGDREDITEPAICALRHLTSRHQEAEMAQNAVRLHYGLPVVVKLLHPPSHWPLIKATVGLIRNLALCPANHAPLREQGAIPRLVQLLVRAHQDTQRRTSMGGTQQQFVEGVRMEEIVEGCTGALHILARDVHNRIVIRGLNTIPLFVQLLYSPIENIQRVAAGVLCELAQDKEAAEAIEAEGATAPLTELLHSRNEGVATYAAAVLFRMSEDKPQDYKKRLSVELTSSLFRTEPMAWNETADLGLDIGAQGEPLGYRQDDPSYRSFHSGGYGQDALGMDPMMEHEMGGHHPGADYPVDGLPDLGHAQDLMDGLPPGDSNQLAWFDTDL
modifications: left off: large carriers; small tags and cut ends
Interaction With E-Cadherin, share of wild type β-catenin interaction (E-cadherin): — (Interactions marked by — correspond to 60–100% of the wild type interaction) | Interaction With LEF-1, share of wild type β-catenin interaction (LEF-1): — (Interactions marked by — correspond to 60–100% of the wild type interaction) | Interaction With APC-15, share of wild type β-catenin interaction [4]: — (Interactions marked by — correspond to 60–100% of the wild type interaction) | Interaction With APC-20, share of wild type β-catenin interaction [5]: — (Interactions marked by — correspond to 60–100% of the wild type interaction)

Interaction With Conductin, share of wild type β-catenin interaction (conductin): 36%
B7: Arg 457: human β-catenin mutant, Arg 457 substituted by alanine (arm 8) (protein)
chain: B5 chain with A177K, R240A
modifications: left off: large carriers; small tags and cut ends
Interaction With E-Cadherin, share of wild type β-catenin interaction (E-cadherin): — (Interactions marked by — correspond to 60–100% of the wild type interaction) | Interaction With LEF-1, share of wild type β-catenin interaction (LEF-1): — (Interactions marked by — correspond to 60–100% of the wild type interaction) | Interaction With APC-15, share of wild type β-catenin interaction [4]: — (Interactions marked by — correspond to 60–100% of the wild type interaction) | Interaction With APC-20, share of wild type β-catenin interaction [5]: — (Interactions marked by — correspond to 60–100% of the wild type interaction)

Second part, the molecule before the results:

Molecule: human β-catenin (Leu218-Leu781) mutant Phe 253 to alanine, Gal-4 activation domain fusion (from UniProt P35222 218-781)
share of the interaction with wild type β-catenin in percent [1]: 40% | share of the interaction with wild type β-catenin in percent [2]: 17%

Molecule: human β-catenin (Leu218-Leu781) mutant Lys 292 to alanine, Gal-4 activation domain fusion (from UniProt P35222 218-781)
share of the interaction with wild type β-catenin in percent [1]: 28% | share of the interaction with wild type β-catenin in percent [2]: 5%

B1: His 470: human β-catenin mutant, His 470 substituted by alanine (arm 8) (protein)
chain: B5 chain with A177K, H253A
modifications: left off: large carriers; small tags and cut ends
Interaction With Conductin, share of wild type β-catenin interaction (conductin): — (Interactions marked by — correspond to 60–100% of the wild type interaction) | Interaction With E-Cadherin, share of wild type β-catenin interaction (E-cadherin): — (Interactions marked by — correspond to 60–100% of the wild type interaction) | interaction with LEF-1/TCF-4 (LEF-1; β-catenin mutation, in words): blocking the interaction; also recorded: no interaction with LEF-1/TCF-4 | Interaction With APC-15, share of wild type β-catenin interaction [4]: 60% | Interaction With APC-20, share of wild type β-catenin interaction [5]: 47%

B2: Trp 383: human β-catenin mutant, Trp 383 substituted by alanine (arm 6) (protein)
chain: B5 chain with W166A, A177K
modifications: left off: large carriers; small tags and cut ends
Interaction With Conductin, share of wild type β-catenin interaction (conductin): — (Interactions marked by — correspond to 60–100% of the wild type interaction) | Interaction With E-Cadherin, share of wild type β-catenin interaction (E-cadherin): — (Interactions marked by — correspond to 60–100% of the wild type interaction) | Interaction With LEF-1, share of wild type β-catenin interaction (LEF-1): — (Interactions marked by — correspond to 60–100% of the wild type interaction) | Interaction With APC-15, share of wild type β-catenin interaction [4]: 59% | Interaction With APC-20, share of wild type β-catenin interaction [5]: 0% | interaction with APC 20aa ([5]; β-catenin mutation, in words): no interaction with APC 20aa

B3: Trp 338: human β-catenin mutant, Trp 338 substituted by alanine (arm 5) (protein)
chain: B5 chain with W121A, A177K
modifications: left off: large carriers; small tags and cut ends
Interaction With Conductin, share of wild type β-catenin interaction (conductin): 20% | interaction with conductin (conductin): no interaction with conductin | Interaction With E-Cadherin, share of wild type β-catenin interaction (E-cadherin): — (Interactions marked by — correspond to 60–100% of the wild type interaction) | Interaction With LEF-1, share of wild type β-catenin interaction (LEF-1): — (Interactions marked by — correspond to 60–100% of the wild type interaction) | Interaction With APC-15, share of wild type β-catenin interaction [4]: — (Interactions marked by — correspond to 60–100% of the wild type interaction) | Interaction With APC-20, share of wild type β-catenin interaction [5]: 55%

B4: Phe 253: human β-catenin mutant, Phe 253 substituted by alanine (arm 3) (protein)
chain: B5 chain with F36A, A177K
modifications: left off: large carriers; small tags and cut ends
Interaction With Conductin, share of wild type β-catenin interaction (conductin): 17% | interaction with conductin (conductin): no interaction with conductin | Interaction With E-Cadherin, share of wild type β-catenin interaction (E-cadherin): — (Interactions marked by — correspond to 60–100% of the wild type interaction) | Interaction With LEF-1, share of wild type β-catenin interaction (LEF-1): — (Interactions marked by — correspond to 60–100% of the wild type interaction) | Interaction With APC-15, share of wild type β-catenin interaction [4]: — (Interactions marked by — correspond to 60–100% of the wild type interaction) | Interaction With APC-20, share of wild type β-catenin interaction [5]: 40%

B6: Lys 292: human β-catenin mutant, Lys 292 substituted by alanine (arm 4) (protein)
chain: B5 chain with K75A, A177K
modifications: left off: large carriers; small tags and cut ends
Interaction With Conductin, share of wild type β-catenin interaction (conductin): 5% | Interaction With E-Cadherin, share of wild type β-catenin interaction (E-cadherin): — (Interactions marked by — correspond to 60–100% of the wild type interaction) | Interaction With LEF-1, share of wild type β-catenin interaction (LEF-1): — (Interactions marked by — correspond to 60–100% of the wild type interaction) | Interaction With APC-15, share of wild type β-catenin interaction [4]: — (Interactions marked by — correspond to 60–100% of the wild type interaction) | Interaction With APC-20, share of wild type β-catenin interaction [5]: 28%
